Square brackets hold non-standard residues; d marks the D form. Ends that are not written are not given here. Aib = CC(C)(N)C(=O)O

This note sets out measurements from patent publication US20220168396A1, “MULTI-RECEPTOR AGONIST AND MEDICAL USE THEREOF” (published 2022).

Assay [1] concerns the target T1, human glucose-dependent insulinotropic peptide receptor (human, UniProt P48546).
T1 sequence: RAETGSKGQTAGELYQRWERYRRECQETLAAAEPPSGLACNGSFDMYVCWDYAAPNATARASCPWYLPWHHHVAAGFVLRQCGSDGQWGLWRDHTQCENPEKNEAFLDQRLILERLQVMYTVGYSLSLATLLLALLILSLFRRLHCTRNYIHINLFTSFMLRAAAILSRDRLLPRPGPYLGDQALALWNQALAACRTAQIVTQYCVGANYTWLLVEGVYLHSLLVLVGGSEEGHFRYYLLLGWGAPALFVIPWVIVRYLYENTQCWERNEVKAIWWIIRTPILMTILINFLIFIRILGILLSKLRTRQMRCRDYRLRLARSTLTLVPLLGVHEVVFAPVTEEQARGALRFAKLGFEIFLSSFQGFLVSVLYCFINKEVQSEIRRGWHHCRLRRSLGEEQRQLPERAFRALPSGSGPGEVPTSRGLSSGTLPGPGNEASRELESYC
As to the kind of experiment: cell-based or functional assay.

The target in assay [2] is human glucagon-like peptide-1 receptor (human, UniProt P43220). As to the kind of experiment: cell-based or functional assay.

B1: Compound No. 23 (peptide)
peptide: Y[Aib]EGTFTSDYSIYLEKEAAKEFVNWLLAQKPSSGAPPPSK-NH2
modifications: N-terminus assumed
SMILES: CC[C@H](C)[C@H](NC(=O)[C@H](CO)NC(=O)[C@H](Cc1ccc(O)cc1)NC(=O)[C@H](CC(=O)O)NC(=O)[C@H](CO)NC(=O)[C@@H](NC(=O)[C@H](Cc1ccccc1)NC(=O)[C@@H](NC(=O)CNC(=O)[C@H](CCC(=O)O)NC(=O)C(C)(C)NC(=O)[C@@H](N)Cc1ccc(O)cc1)[C@@H](C)O)[C@@H](C)O)C(=O)N[C@@H](Cc1ccc(O)cc1)C(=O)N[C@@H](CC(C)C)C(=O)N[C@@H](CCC(=O)O)C(=O)N[C@@H](CCCCN)C(=O)N[C@@H](CCC(=O)O)C(=O)N[C@@H](C)C(=O)N[C@@H](C)C(=O)N[C@@H](CCCCN)C(=O)N[C@@H](CCC(=O)O)C(=O)N[C@@H](Cc1ccccc1)C(=O)N[C@H](C(=O)N[C@@H](CC(N)=O)C(=O)N[C@@H](Cc1c[nH]c2ccccc12)C(=O)N[C@@H](CC(C)C)C(=O)N[C@@H](CC(C)C)C(=O)N[C@@H](C)C(=O)N[C@@H](CCC(N)=O)C(=O)N[C@@H](CCCCN)C(=O)N1CCC[C@H]1C(=O)N[C@@H](CO)C(=O)N[C@@H](CO)C(=O)NCC(=O)N[C@@H](C)C(=O)N1CCC[C@H]1C(=O)N1CCC[C@H]1C(=O)N1CCC[C@H]1C(=O)N[C@@H](CO)C(=O)N[C@@H](CCCCN)C(N)=O)C(C)C
B1: the “Activity for human GIPR (EC50 nM), cAMP HTRF” value (shortened to “Activity for human GIPR”) in assay [1] is 0.02 nM. The “Activity for human GLP-1R (EC50 nM), cAMP HTRF” value (“Activity for human GLP-1R” for short) in assay [2] was found to be 0.059 nM.

B2: Compound No. 19 (peptide)
peptide: Y[Aib]EGTFTSDYSIYLDKEAAKEFVNWLLAGGPSSGAPPPSK-NH2
modifications: N-terminus assumed
SMILES: CC[C@H](C)[C@H](NC(=O)[C@H](CO)NC(=O)[C@H](Cc1ccc(O)cc1)NC(=O)[C@H](CC(=O)O)NC(=O)[C@H](CO)NC(=O)[C@@H](NC(=O)[C@H](Cc1ccccc1)NC(=O)[C@@H](NC(=O)CNC(=O)[C@H](CCC(=O)O)NC(=O)C(C)(C)NC(=O)[C@@H](N)Cc1ccc(O)cc1)[C@@H](C)O)[C@@H](C)O)C(=O)N[C@@H](Cc1ccc(O)cc1)C(=O)N[C@@H](CC(C)C)C(=O)N[C@@H](CC(=O)O)C(=O)N[C@@H](CCCCN)C(=O)N[C@@H](CCC(=O)O)C(=O)N[C@@H](C)C(=O)N[C@@H](C)C(=O)N[C@@H](CCCCN)C(=O)N[C@@H](CCC(=O)O)C(=O)N[C@@H](Cc1ccccc1)C(=O)N[C@H](C(=O)N[C@@H](CC(N)=O)C(=O)N[C@@H](Cc1c[nH]c2ccccc12)C(=O)N[C@@H](CC(C)C)C(=O)N[C@@H](CC(C)C)C(=O)N[C@@H](C)C(=O)NCC(=O)NCC(=O)N1CCC[C@H]1C(=O)N[C@@H](CO)C(=O)N[C@@H](CO)C(=O)NCC(=O)N[C@@H](C)C(=O)N1CCC[C@H]1C(=O)N1CCC[C@H]1C(=O)N1CCC[C@H]1C(=O)N[C@@H](CO)C(=O)N[C@@H](CCCCN)C(N)=O)C(C)C
For B2, the “Activity for human GIPR” value in assay [1] was found to be 0.02 nM. Moreover, the “Activity for human GLP-1R” value in assay [2] was 0.024 nM.

B3: Compound No. 20 (peptide)
peptide: Y[Aib]EGTFTSDYSIYLDKIAAQEFVNWLLAGGPSSGAPPPSK-NH2
modifications: N-terminus assumed
SMILES: CC[C@H](C)[C@H](NC(=O)[C@H](CCCCN)NC(=O)[C@H](CC(=O)O)NC(=O)[C@H](CC(C)C)NC(=O)[C@H](Cc1ccc(O)cc1)NC(=O)[C@@H](NC(=O)[C@H](CO)NC(=O)[C@H](Cc1ccc(O)cc1)NC(=O)[C@H](CC(=O)O)NC(=O)[C@H](CO)NC(=O)[C@@H](NC(=O)[C@H](Cc1ccccc1)NC(=O)[C@@H](NC(=O)CNC(=O)[C@H](CCC(=O)O)NC(=O)C(C)(C)NC(=O)[C@@H](N)Cc1ccc(O)cc1)[C@@H](C)O)[C@@H](C)O)[C@@H](C)CC)C(=O)N[C@@H](C)C(=O)N[C@@H](C)C(=O)N[C@@H](CCC(N)=O)C(=O)N[C@@H](CCC(=O)O)C(=O)N[C@@H](Cc1ccccc1)C(=O)N[C@H](C(=O)N[C@@H](CC(N)=O)C(=O)N[C@@H](Cc1c[nH]c2ccccc12)C(=O)N[C@@H](CC(C)C)C(=O)N[C@@H](CC(C)C)C(=O)N[C@@H](C)C(=O)NCC(=O)NCC(=O)N1CCC[C@H]1C(=O)N[C@@H](CO)C(=O)N[C@@H](CO)C(=O)NCC(=O)N[C@@H](C)C(=O)N1CCC[C@H]1C(=O)N1CCC[C@H]1C(=O)N1CCC[C@H]1C(=O)N[C@@H](CO)C(=O)N[C@@H](CCCCN)C(N)=O)C(C)C
For the molecule B3, the “Activity for human GIPR” value in assay [1] was determined as 0.008 nM. In assay [2], the “Activity for human GLP-1R” value was found to be 0.027 nM.

B4: Compound No. 22 (peptide)
peptide: Y[Aib]EGTFTSDYSIYLD[Aib]IAAQEFVQWLLAGGPSSGAPPPSK-NH2
modifications: N-terminus assumed
SMILES: CC[C@H](C)[C@H](NC(=O)[C@H](CO)NC(=O)[C@H](Cc1ccc(O)cc1)NC(=O)[C@H](CC(=O)O)NC(=O)[C@H](CO)NC(=O)[C@@H](NC(=O)[C@H](Cc1ccccc1)NC(=O)[C@@H](NC(=O)CNC(=O)[C@H](CCC(=O)O)NC(=O)C(C)(C)NC(=O)[C@@H](N)Cc1ccc(O)cc1)[C@@H](C)O)[C@@H](C)O)C(=O)N[C@@H](Cc1ccc(O)cc1)C(=O)N[C@@H](CC(C)C)C(=O)N[C@@H](CC(=O)O)C(=O)NC(C)(C)C(=O)N[C@H](C(=O)N[C@@H](C)C(=O)N[C@@H](C)C(=O)N[C@@H](CCC(N)=O)C(=O)N[C@@H](CCC(=O)O)C(=O)N[C@@H](Cc1ccccc1)C(=O)N[C@H](C(=O)N[C@@H](CCC(N)=O)C(=O)N[C@@H](Cc1c[nH]c2ccccc12)C(=O)N[C@@H](CC(C)C)C(=O)N[C@@H](CC(C)C)C(=O)N[C@@H](C)C(=O)NCC(=O)NCC(=O)N1CCC[C@H]1C(=O)N[C@@H](CO)C(=O)N[C@@H](CO)C(=O)NCC(=O)N[C@@H](C)C(=O)N1CCC[C@H]1C(=O)N1CCC[C@H]1C(=O)N1CCC[C@H]1C(=O)N[C@@H](CO)C(=O)N[C@@H](CCCCN)C(N)=O)C(C)C)[C@@H](C)CC
As for B4, the “Activity for human GIPR” value in assay [1] was 0.018 nM. Also, in assay [2], the “Activity for human GLP-1R” value was determined as 0.051 nM.

B5: Compound No. 24 (peptide)
peptide: Y[Aib]EGTFTSDYSIYLEKIAAQEFVNWLLAQKPSSGAPPPSK-NH2
modifications: N-terminus assumed
SMILES: CC[C@H](C)[C@H](NC(=O)[C@H](CCCCN)NC(=O)[C@H](CCC(=O)O)NC(=O)[C@H](CC(C)C)NC(=O)[C@H](Cc1ccc(O)cc1)NC(=O)[C@@H](NC(=O)[C@H](CO)NC(=O)[C@H](Cc1ccc(O)cc1)NC(=O)[C@H](CC(=O)O)NC(=O)[C@H](CO)NC(=O)[C@@H](NC(=O)[C@H](Cc1ccccc1)NC(=O)[C@@H](NC(=O)CNC(=O)[C@H](CCC(=O)O)NC(=O)C(C)(C)NC(=O)[C@@H](N)Cc1ccc(O)cc1)[C@@H](C)O)[C@@H](C)O)[C@@H](C)CC)C(=O)N[C@@H](C)C(=O)N[C@@H](C)C(=O)N[C@@H](CCC(N)=O)C(=O)N[C@@H](CCC(=O)O)C(=O)N[C@@H](Cc1ccccc1)C(=O)N[C@H](C(=O)N[C@@H](CC(N)=O)C(=O)N[C@@H](Cc1c[nH]c2ccccc12)C(=O)N[C@@H](CC(C)C)C(=O)N[C@@H](CC(C)C)C(=O)N[C@@H](C)C(=O)N[C@@H](CCC(N)=O)C(=O)N[C@@H](CCCCN)C(=O)N1CCC[C@H]1C(=O)N[C@@H](CO)C(=O)N[C@@H](CO)C(=O)NCC(=O)N[C@@H](C)C(=O)N1CCC[C@H]1C(=O)N1CCC[C@H]1C(=O)N1CCC[C@H]1C(=O)N[C@@H](CO)C(=O)N[C@@H](CCCCN)C(N)=O)C(C)C
On to B5, for which the “Activity for human GIPR” value in assay [1] was 0.008 nM. Also, in assay [2], the “Activity for human GLP-1R” value stood at 0.083 nM.

B6: Compound No. 1 (peptide)
peptide: H[Aib]EGTFTSDVSSYLEEEAAKEFIAWLVRGGPSSGAPPPSK-NH2
modifications: N-terminus assumed
SMILES: CC[C@H](C)[C@H](NC(=O)[C@H](Cc1ccccc1)NC(=O)[C@H](CCC(=O)O)NC(=O)[C@H](CCCCN)NC(=O)[C@H](C)NC(=O)[C@H](C)NC(=O)[C@H](CCC(=O)O)NC(=O)[C@H](CCC(=O)O)NC(=O)[C@H](CCC(=O)O)NC(=O)[C@H](CC(C)C)NC(=O)[C@H](Cc1ccc(O)cc1)NC(=O)[C@H](CO)NC(=O)[C@H](CO)NC(=O)[C@@H](NC(=O)[C@H](CC(=O)O)NC(=O)[C@H](CO)NC(=O)[C@@H](NC(=O)[C@H](Cc1ccccc1)NC(=O)[C@@H](NC(=O)CNC(=O)[C@H](CCC(=O)O)NC(=O)C(C)(C)NC(=O)[C@@H](N)Cc1c[nH]cn1)[C@@H](C)O)[C@@H](C)O)C(C)C)C(=O)N[C@@H](C)C(=O)N[C@@H](Cc1c[nH]c2ccccc12)C(=O)N[C@@H](CC(C)C)C(=O)N[C@H](C(=O)N[C@@H](CCCNC(=N)N)C(=O)NCC(=O)NCC(=O)N1CCC[C@H]1C(=O)N[C@@H](CO)C(=O)N[C@@H](CO)C(=O)NCC(=O)N[C@@H](C)C(=O)N1CCC[C@H]1C(=O)N1CCC[C@H]1C(=O)N1CCC[C@H]1C(=O)N[C@@H](CO)C(=O)N[C@@H](CCCCN)C(N)=O)C(C)C
In the case of B6, the “Activity for human GIPR” value in assay [1] was above 10 nM. Further, the “Activity for human GLP-1R” value in assay [2] came to 0.005 nM.
